{
  "source": "the DeepSol protein solubility set",
  "data": [
    {"test": "soluble on expression in E. coli; label from the status in PepcDB or PDB records", "values": [
      {"sequence": "TKDFIWNLSFNGTHYSNKILNLPEDKRENGIIHGTASLFRLMEGGSIYDLYTYEYAGVNPETGAAQWYMDEKDANGKVTGRTVTEDYTQASKYELGSTLPDFQGGFSTDFAYKGIDLSIATNFQIGGKIYDSMYSSFMHAGSNIGSNWHKDILNAWTPENKNTNVPIMDGAQNSNSQSSRFLINASFFNIRNISLGYTFPKEWMKAISASSARIYVSADNVALFSKRKGMDPRQYAYGYSAANYSAIRTLSFGINLNF", "soluble on expression in E. coli": "not soluble"},
      {"sequence": "TKIAMANFKSAMPIFKSHAYLKELEKTLKPQHFDRVFVFPDFFGLLPNSFLHFTLGVQNAYPRDCGAFTGEITSKHLEELKIHTLLIGHSERRTLLKESPSFLKEKFDFFKSKNFKIVYCIGEELTTREKGFKAVKEFLSEQLENIDLNYPNLVVAYEPIWAIGTKKSASLEDIYLTHGFLKQILNQKTPLLYGGSVNTQNAKEILGIDSVDGLLIGSASWELENFKTIISFL", "soluble on expression in E. coli": "soluble"},
      {"sequence": "TLAGRIVLVKIEPLSFSEFCKLKGHEVPYEKVAYARDILSPMLMEYIEKGGFPELVWENDPYKIRSYVRSIVIDRIVTRDIPQEFGIR", "soluble on expression in E. coli": "not soluble"},
      {"sequence": "TLREGWVVHYSNKDTLRKRHYWRLDCKCITLFQNNTTNRYYKEIPLSEILTVESAQNFSLVPPGTNPHCFEIVTANATYFVGEMPGGTPGGPSGQGAEAARGWETAIRQALM", "soluble on expression in E. coli": "soluble"},
      {"sequence": "TMAGRSMQAARCPTDELSLSNCAVVSEKDYQSGQHVIVRTSPNHKYIFTLRTHPSVVPGSVAFSLPQRKWAGLSIGQEIEVALYSFDKAKQCIGTMTIEIDFLQKKNIDSNPYDTDKMAAEFIQQFNNQAFSVGQQLVFSFNDKLFGLLVKDIEAMDPSILKGEPASGKRQKIEVGLVVGNSQVAFEKAENSSLNLIGKAKTKE", "soluble on expression in E. coli": "soluble"},
      {"sequence": "TNHHQRALSYLQYGLDQGEGFIVITGPIGTGKTTIARNLLANIADENIVAAQLVTTKLTPNELLDLVAAEFKITVTGNSKADVLQSIEKFLINLNKQGKRALLLVDEAQNLPVETVEELRMLSNFQLDNKPLIQSFLLGQEELKAIISAPDMEQFRQRIIASAHLKP", "soluble on expression in E. coli": "not soluble"},
      {"sequence": "TPGFSLGFIVNMRLHDHFDLRLLPTVGFYSRSIQYDFIKTSEIQTIESTFVEFPLLLKYKSQRRNNSRLYVTGGFKASIEAGAKKKQRKSTDLRTNGFDLCLDMGVGMDIYCPLFKFSPEIRYSHGLLNLLNNDPNVYSSSLSRLSSNTISLFFNFE", "soluble on expression in E. coli": "not soluble"},
      {"sequence": "TQDMELNVNVNVTFQQNKLLSLSGMYGGENISAPEYKSLASLDGAGFHGGYNHIVYQMVGQPLGVFYLPHCKGLIADGNGGYTYDIADLNGGGVSLEDGEDRYVAGQAVPKTLLGSNISFRYKRFDLSVQVNGAFGHKIYNGTSLTYMNMNIFPDYNVMKKAPGRNIKDQTATDYWLEKGDYINFDYVTVGWNVPVAKWKKYVQSFRLAFTVNNLATITGYSGLSPMINSSTVNSTLGVDDKRAYPLARTYTLGLSINF", "soluble on expression in E. coli": "not soluble"},
      {"sequence": "TQQPIVTGTSVISMKYDNGVIIAADNLGSYGSLLRFNGVERLIPVGDNTVVGISGDISDMQHIERLLKDLVTENAYDNPLADAEEALEPSYIFEYLATVMYQRRSKMNPLWNAIIVAGVQSNGDQFLRYVNLLGVTYSSPTLATGFGAHMANPLLRKVVDRESDIPKTTVQVAEEAIVNAMRVLYYRDARSSRNFSLAIIDKNTGLTFKKNLQVENMKWDFAKDIKGYGTQKI", "soluble on expression in E. coli": "soluble"},
      {"sequence": "TRAFQEGSYSSNIKNAAKFYTGLIQLQNPEFGDSSSIDDALPQTDTFISASRANSNIDVILPRVESFALAAKGERSKGVMVLGVDPESENAYSHISDKLVQGEFIASGQNAVLVGGGLAQYLRLKIGDELVLYGAGYRGQTAAGLYRVAGILHFPLQQLDSQLVYMPLDTAQTLYSLDKQVTAWVLNTSNLRVLPSVIEQLKRDYGNSVAVKGWQELSPELSQQIALDKAG", "soluble on expression in E. coli": "not soluble"},
      {"sequence": "TSHHHHHMKKIEHKMVAVNGLNMHLAELGEGPTILFIHGFPELWYSWRHQMVYLAERGYRAVAPDLRGYGDTTGAPLNDPSKFSILHLVGDVVALLEAIAPNEEKVFVVAHDWGALIAWHLCLFRPDKVKALVNLSVHFSKRNPKMNVVEGLKAIFGEDHYISRFQVPGEIEAEFAPIGAKSVLKKILTYRDPAPFYFPKGKGLEAIPDAPVALSSWLSEEELDYYANKFEQTGFTGAVNYYRALPINWELTAPWTGAQVKVPTKFIVGEFDLVYHIPGAKEYIHNGGFKKDVPLLEEVVVLEGAAHFVSQERPHEISKHIYDFIQKF", "soluble on expression in E. coli": "soluble"},
      {"sequence": "TTEENSKSEALLDIPMLEQYLELVGPKLITDGLAVFEKMMPGYVSVLESNLTAQDKKGIVEEGHKIKGAAGSVGLRHLQQLGQQIQSPDLPAWEDNVGEWIEEMKEEWRHDVEVLKAWVAKATKK", "soluble on expression in E. coli": "soluble"},
      {"sequence": "TTPIVHLKGDANTLKCLRYRFKKHCTLYTAVSSTWHWTGHNVKHKSAIVTLTYDSEWQRDQFLSQVKIPKTITVSTGFMSIGGGTGGGSGGGS", "soluble on expression in E. coli": "soluble"},
      {"sequence": "VAVGDVDAPVGLVVFSDYQCPFCAKWSDETLPQMMKHVEDGNLRIEWREVNIFGEPSERGARAAYAAGLQDAYLEYHNALFANGEKPSEDLLSEEGLIKLAGDLGLDESKFTADFQSPETAVAIAQHQQLGIDLGAYSTPAFLLGGQPIMGAQPASVFEAAFEQALAAKE", "soluble on expression in E. coli": "not soluble"},
      {"sequence": "VDLEKFKFHARIDDDFEDSYIQLLLDAAINYVSKITGVPNDENAPPEYDLAIMILALHWYTNREVLSDRGTNQVPYGLGMLIANLRTN", "soluble on expression in E. coli": "not soluble"},
      {"sequence": "VDLGSKSSNSTCRLNVTELASIHPGETWTLHGMCISICYYENVTEDEIIGVAFTWQHNESVVDLWLYQNDTVIRNFSDITTNILQDGLKMRTVPVTKLYTSRMVTNLTVGRYDCLRCENGTTKIIERLYVRLGSLYPRPPGSGLAKHPSVSADEELSA", "soluble on expression in E. coli": "soluble"},
      {"sequence": "VDYKTVRCHFGDVELTKWITITDGFTVFSGADYDPELKEIGGKDGSIFIGTKTKHKVIKVPFWVKYNTIEDYDALQLALSSKKPKMLMFSHIPGRYYLAVQVGDLNFKEIKMNGFGEITFIVADAYAHSTSYRRIKDYTQDGNKMTFKIKNNGTAPAFPIFRIKHLGENGYIGITNETGAFAVGSPEEEDGTIVHRNETLFDYSKAIAQALEGAPNVAKLNYMPPTFDSELKRMRLDNILGSGKGGEYVAIGARGTTPGYGEHVGTRTFIINPDSNGEYTLNEHLWWKQIFIATAQDQKGFLKLCVTGENDEFLYGIETYKRKNGFETEYNFFALDDDGVGWRFYKQFEFQADRNYHNPFSMNRSRAVEIFREEDKFRIYFNGAHHHVTVPSLKGKKSRKIHLAMGTCSDSSKYINYNLFEKVNFEKMGVSHYNNIVNKYQPGDEVIINFENDTVSTKDIDSIQDVVLGSKMISIPPGESELVVHLSSWVA", "soluble on expression in E. coli": "not soluble"},
      {"sequence": "VEPSEENSKDCVVCQNGTVNWVLLPCRHTCLCDGCVKYFQQCPMCRQFVQESFAL", "soluble on expression in E. coli": "soluble"},
      {"sequence": "VFCAGHGVYWVAYDAGNLIKNGENTVEILTSTGEPGKKMDGRIYGTVLAAACENPKAPMVSYQLLTGNINLHGEGWSENIKEVNDRAEVNFSAGQALNNIDSANLSVVYLTGSKGLPDYIEFNGEIPGVPPQYLVEKCGENVRDIANEVSFDSSGDKGAASSYFDMEHIDVLNYLKADNSAVFVRGFDINGDGKIDDQEGEDYLHPVLAALVLTSKNTESVFPDLYPEIRVSEEELIDGKPVEISLTINNPGGICEENCTAVFLVDGNEISRVPIQMGAAGIHRSGILWSGIKGEHRLELFLD", "soluble on expression in E. coli": "not soluble"},
      {"sequence": "VGKEKMPVELYHAGEEITQLVREFATDKMKKAVQTFEKLERMENMDRVKEETLAHFEETLEDFEDFVGDIEEVLQDIIKEEVRKLIVHENVRPDNRKLEEIRP", "soluble on expression in E. coli": "not soluble"},
      {"sequence": "VGKLQKREYSHEVNDEDLRKKVHDECYARAYEVATSGTGKHERGEAFEKIVEEFKAQYTEEELAEKAEMIARYYHDVEKEAMRRAILDEGKRLDGRKTTEIRP", "soluble on expression in E. coli": "not soluble"},
      {"sequence": "VGKQLAALAALVGACMLAAGCTNVVDGTAVAADKSGPLHQDPIPVSALEGLLLDLSQINAALGATSMKVWFNAKAMWDWSKSVADKNCLAIDGPAQEKVYAGTGWTAMRGQRLDDSIDDSKKRDHYAIQAVVGFPTAHDAEEFYSSSVQSWSSCSNRRFVEVTPGQDDAAWTVADVVNDNGMLSSSQVQEGGDGWTCQRALTARNNVTIDIVTCAYSQPDLVAIGIANQIAAKVAKQ", "soluble on expression in E. coli": "not soluble"},
      {"sequence": "VHFAPTITFLESPTSDHHWCIPFTVKGNPKPALQWFYNGAILNESKYICTKIHVTNHTEYHGCLQLDNPTHMNNGDYTLIAKNEYGKDEKQISAHFMGWPGID", "soluble on expression in E. coli": "soluble"},
      {"sequence": "VKSKAKKTVDKHSDEYKIRRERNNIAVRKSRDKAKMRNLETQHKVLELTAENERLQKKVEQLSRELSTLRNLFKQLPEPLLASSGHC", "soluble on expression in E. coli": "soluble"},
      {"sequence": "VKSLFLLVLGNTEISTIPGISVAGATPELTKITPVADAEYLFYEKPLTIDTIPVTPEGHPTPAIITKAARELSNFPILVVRGGTYLAPLIPHVHISNVVGRDFRREPALPEVEVIIERAKLLGKELEKIANEIVIGESTPGGTTTAQAILWALGYEAKTSSASPENPQELKEKVIKEGFKRVGIEKGGLKDKPLEALKEFGDPMIATVLGLSLGFGGDVVLAGGTQMLAVSALLKSLGEDLSRFMIATTRWVVEDPSATFIETAREIGIISYVAELDFSKSKFKGLRDYERGYVKEGVGAGGATWLAV", "soluble on expression in E. coli": "not soluble"},
      {"sequence": "VLDSFEILKALKSLDLLKNAPAWWWPNALKFEALLGAVLTQNTKFEAVLKSLENLKNAFILENDDEINLKKIAYIEFSKLAECVRPSGFYNQKAKRLIDLSGNILKDFQSFENFKQEVTREWLLDQKGIGKESADAILCYACAKEVMVVDKYSYLFLKKLGIEIEDYDELQHFFEKGVQENLNSALALYENTISLAQLYARFHGKIVEFSKQKLELKL", "soluble on expression in E. coli": "soluble"},
      {"sequence": "VMHSSLYTSVDDKLHGLSENPQAVIQLAINRATEEIKDLENARADASKVEIKPNVSSNTEVILFDKDFTQLLSGNRFLGLDKIKLEKKELGHIYQIQVFNSYGQEEIYRVILMETNISSVSTNIKYAAVLINTSQLEQASQKHEQ", "soluble on expression in E. coli": "not soluble"},
      {"sequence": "VNVLKKDITASPVLSETAPTSAPSEAAAANEIKQPIPSQKAEMSELKKLTDIISPELIEPNLVGETSDDIIDELIQKLSRRGALLSESGFKQAILNREQQGTTAIGMNIAIPHGKSEAVREPSVAFGIKRSGVDWE", "soluble on expression in E. coli": "not soluble"},
      {"sequence": "VPGTVEVVFDKPEYRTGEEASALITFPEPVEDALLSLERDKVEATALLSKGADWLRLEKLNPTQYRVWIPVREEFSPNLTFSVLYTKGGDYSFQNAGIKVGMPQVEIDIATDKERYEPGETVTVTLATRFAGKPVSSHLTVSVVDEMVYALQAE", "soluble on expression in E. coli": "not soluble"},
      {"sequence": "VQVGNCLQVMWLADRHSDPELYTAAKHCAKTHLAQLQNTEEFLHLPHRLLTDIISDGVPCSQNPTEAIEAWINFNKEEREAFAESLRTSLKEIGENVH", "soluble on expression in E. coli": "soluble"},
      {"sequence": "VRLLESGGGLVQPGGSLKLSCAASGFDYSRYWMSWVRQAPGKGLKWIGEINPVSSTINYTPSLKDKFIISRDNAKDTLYLQISKVRSEDTALYYCARLYYGYGYWYFDVWGAGTTVTVSSAKTTPPSVYPLAPGSAAAAASMVTLGCLVKGYFPEPVTVTWNSGSLAAGVHTFPAVLQAALYTLSSSVTVPSSSWPSETVTCNVAHPASSTKVDKKIVPRA", "soluble on expression in E. coli": "soluble"},
      {"sequence": "VSNKTYYLVGTSHISENSVKLVKEVIERVQPDTVSIELDKKRYEKYTNSNQWGNTDIIKIIKEKKLVVLISNIVYSAYQKKLANTKGTTQAGELIQAIKSAKEIGANIQLIDRDIQVTFKRMWRHLSFLEKPKLFMTFFTEFDDIEQDKLEEYLESDSFDKVFISLSKKYPSLYQDMITDRDKYMSTKLKNNSSQVNVVVVGKAHMKGIKEKLEKRTEFSL", "soluble on expression in E. coli": "not soluble"}
    ]}
  ]
}
